Measured values published in paper PMC10333360, “Establishing mammalian GLUT kinetics and lipid composition influences in a reconstituted-liposome system” (Nature Communications, 2023).

B1: GLUT1 (Homo sapiens) (protein)
chain: MEPSSKKLTGRLMLAVGGAVLGSLQFGYNTGVINAPQKVIEEFYNQTWVHRYGESILPTTLTTLWSLSVAIFSVGGMIGSFSVGLFVNRFGRRNSMLMMNLLAFVSAVLMGFSKLGKSFEMLILGRFIIGVYCGLTTGFVPMYVGEVSPTALRGALGTLHQLGIVVGILIAQVFGLDSIMGNKDLWPLLLSIIFIPALLQCIVLPFCPESPRFLLINRNEENRAKSVLKKLRGTADVTHDLQEMKEESRQMMREKKVTILELFRSPAYRQPILIAVVLQLSQQLSGINAVFYYSTSIFEKAGVQQPVYATIGSGIVNTAFTVVSLFVVERAGRRTLHLIGLAGMAGCAILMTIALALLEQLPWMSYLSIVAIFGFVAFFEVGPGPIPWFIVAELFSQGPRPAAIAVAGFSNWTSNFIVGMCFQYVEQLCGPYVFIIFTVLLVLFFIFTYFKVPETKGRTFDEIASGFRQGGASQSDKTPEELFHPLGADSQV
B2: hGLUT4 (Homo sapiens) (protein)
chain: MPSGFQQIGSEDGEPPQQRVTGTLVLAVFSAVLGSLQFGYNIGVINAPQKVIEQSYNETWLGRQGPEGPSSIPPGTLTTLWALSVAIFSVGGMISSFLIGIISQWLGRKRAMLVNNVLAVLGGSLMGLANAAASYEMLILGRFLIGAYSGLTSGLVPMYVGEIAPTHLRGALGTLNQLAIVIGILIAQVLGLESLLGTASLWPLLLGLTVLPALLQLVLLPFCPESPRYLYIIQNLEGPARKSLKRLTGWADVSGVLAELKDEKRKLERERPLSLLQLLGSRTHRQPLIIAVVLQLSQQLSGINAVFYYSTSIFETAGVGQPAYATIGAGVVNTVFTLVSVLLVERAGRRTLHLLGLAGMCGCAILMTVALLLLERVPAMSYVSIVAIFGFVAFFEIGPGPIPWFIVAELFSQGPRPAAMAVAGFSNWTSNFIIGMGFQYVAEAMGPYVFLLFAVLLLGFFIFTFLRVPETRGRTFDQISAAFHRTPSLLEQEVKPSTELEYLGPDEND
B3: hGLUT3 (Homo sapiens) (protein)
chain: MGTQKVTPALIFAITVATIGSFQFGYNTGVINAPEKIIKEFINKTLTDKGNAPPSEVLLTSLWSLSVAIFSVGGMIGSFSVGLFVNRFGRRNSMLIVNLLAVTGGCFMGLCKVAKSVEMLILGRLVIGLFCGLCTGFVPMYIGEISPTALRGAFGTLNQLGIVVGILVAQIFGLEFILGSEELWPLLLGFTILPAILQSAALPFCPESPRFLLINRKEEENAKQILQRLWGTQDVSQDIQEMKDESARMSQEKQVTVLELFRVSSYRQPIIISIVLQLSQQLSGINAVFYYSTGIFKDAGVQEPIYATIGAGVVNTIFTVVSLFLVERAGRRTLHMIGLGGMAFCSTLMTVSLLLKDNYNGMSFVCIGAILVFVAFFEIGPGPIPWFIVAELFSQGPRPAAMAVAGCSNWTSNFLVGLLFPSAAHYLGAYVFIIFTGFLITFLAFTFFKVPETRGRTFEDITRAFEGQAHGADRSGKDGVMEMNSIEPAKETTTNV

Experiments:
purified protein = substrate: OC[C@H]1OC(O)[C@H](O)[C@@H](O)[C@@H]1O; assay: purified protein
[1] = substrate: OC[C@H]1OC(O)[C@H](O)[C@@H](O)[C@@H]1O; assay: zero-trans transport kinetics in proteoliposomes (KM); assay type: biochemical, Homo sapiens

| Protein | Km (purified protein) [µM] | Km [1] [µM] |
| --- | --- | --- |
| B1 | 2000 | – |
| B2 | – | 8200 |
| B3 | 1400 | – |
